This note sets out measurements from PMC8760513, “Mechanistic details of the actinobacterial lyase-catalyzed degradation reaction of 2-hydroxyisobutyryl-CoA” (The Journal of Biological Chemistry, 2021).

Substrate in the series: CC(C)(O)C(=O)SCCNC(=O)CCNC(=O)[C@H](O)C(C)(C)COP(=O)(O)OP(=O)(O)OC[C@H]1O[C@@H](n2cnc3c(N)ncnc32)[C@H](O)[C@@H]1OP(=O)(O)O
As to the kind of experiment: purified protein. The following applies: lyase direction, 37 °C, pH 7.2, 100 mM potassium phosphate, 10% glycerol, 0.2 mM ThDP, 0.2 mM ADP, 5 mM MgCl2, complex structure with dzThDP.

B1: AcHACL (Actinomycetospora chiangmaiensis DSM 45062) (protein)
chain: MADRQDAERSGAGPARQSVPVASLVAEFLQEHGVDRVFGLQGGHIQPIWDQLARRGVRIVDVRDEGSAVHMAHAHTELTGQTAVAMVTAGPGVTNTVTAVANASVSRIPLLVIGGCPPIPQSNMGPLQDIPHTAILEPITRLARTLRSADQVLREFDEAWARASGDRGEPGPVYLEIPTDVLRRDVPPALQMREHLRAKPKRRPQPHPDDVAAVADLIRAAEKPAIISGRGARTTDGTDLVRLLDASGAAYLDTQESRGLVPDSHPAAVGSARSAVMRDTDLLITVGRQLDYQLGMGSPAVFPHAKVVRIADTASELIDNRRGEVEILAEPGAALAAIADALKDHTPDTSWRDELKAKHRKRAEDYRQALHSTENGADGHIHPNRIFGALDALDGDVLDLGETIMIADGGDLLSFGRLGITKARRYLDAGAFGCLGVATPFAIGAALAYPDRPVVAVTGDGAFGITATEIDTAVRHDAKIVVIVSNNRAWNIERYDQAENYGLVVGTDLADSDYAGVARAFGAHGERVTDPAELEGAIRRALANAPALVDVVTTQDAASPDSGKGLGFVPDYQALTPWNDAEVARRQEGI
A word on the Km: it is the substrate concentration at which the rate is half of its maximum. As a reminder, the Vmax is the top rate of the reaction or transport when substrate is in excess. The term kcat denotes the maximal rate divided by the concentration of active sites. For orientation: kcat/Km means the turnover number divided by the Michaelis constant. For B1, the Km was found to be 120 ± 12 µM, the maximal velocity (Vmax) amounted to 1.2 µmol/min/mg, the turnover number (kcat) was 1.3 s⁻¹ and the kcat/Km came out at 11000 M⁻¹ s⁻¹.

B2: AcHACL (Actinomycetospora chiangmaiensis DSM 45062; E493Q) (protein)
chain: MADRQDAERSGAGPARQSVPVASLVAEFLQEHGVDRVFGLQGGHIQPIWDQLARRGVRIVDVRDEGSAVHMAHAHTELTGQTAVAMVTAGPGVTNTVTAVANASVSRIPLLVIGGCPPIPQSNMGPLQDIPHTAILEPITRLARTLRSADQVLREFDEAWARASGDRGEPGPVYLEIPTDVLRRDVPPALQMREHLRAKPKRRPQPHPDDVAAVADLIRAAEKPAIISGRGARTTDGTDLVRLLDASGAAYLDTQESRGLVPDSHPAAVGSARSAVMRDTDLLITVGRQLDYQLGMGSPAVFPHAKVVRIADTASELIDNRRGEVEILAEPGAALAAIADALKDHTPDTSWRDELKAKHRKRAEDYRQALHSTENGADGHIHPNRIFGALDALDGDVLDLGETIMIADGGDLLSFGRLGITKARRYLDAGAFGCLGVATPFAIGAALAYPDRPVVAVTGDGAFGITATEIDTAVRHDAKIVVIVSNNRAWNIQRYDQAENYGLVVGTDLADSDYAGVARAFGAHGERVTDPAELEGAIRRALANAPALVDVVTTQDAASPDSGKGLGFVPDYQALTPWNDAEVARRQEGI
B2: the Km was determined as 79 ± 7 µM, the maximal velocity (Vmax) was determined as 0.025 µmol/min/mg, the turnover number (kcat) is 0.03 s⁻¹ and the kcat/Km was 340 M⁻¹ s⁻¹.

B3: AcHACL (Actinomycetospora chiangmaiensis DSM 45062; E493A) (protein)
chain: MADRQDAERSGAGPARQSVPVASLVAEFLQEHGVDRVFGLQGGHIQPIWDQLARRGVRIVDVRDEGSAVHMAHAHTELTGQTAVAMVTAGPGVTNTVTAVANASVSRIPLLVIGGCPPIPQSNMGPLQDIPHTAILEPITRLARTLRSADQVLREFDEAWARASGDRGEPGPVYLEIPTDVLRRDVPPALQMREHLRAKPKRRPQPHPDDVAAVADLIRAAEKPAIISGRGARTTDGTDLVRLLDASGAAYLDTQESRGLVPDSHPAAVGSARSAVMRDTDLLITVGRQLDYQLGMGSPAVFPHAKVVRIADTASELIDNRRGEVEILAEPGAALAAIADALKDHTPDTSWRDELKAKHRKRAEDYRQALHSTENGADGHIHPNRIFGALDALDGDVLDLGETIMIADGGDLLSFGRLGITKARRYLDAGAFGCLGVATPFAIGAALAYPDRPVVAVTGDGAFGITATEIDTAVRHDAKIVVIVSNNRAWNIARYDQAENYGLVVGTDLADSDYAGVARAFGAHGERVTDPAELEGAIRRALANAPALVDVVTTQDAASPDSGKGLGFVPDYQALTPWNDAEVARRQEGI
For the protein B3, the Km worked out at 21 ± 4 µM, the Vmax is 0.098 µmol/min/mg, the kcat is 0.11 s⁻¹ and the kcat/Km was determined as 5100 M⁻¹ s⁻¹.
